The values that follow come from publication PMC2922993.

The target in one assay is RAG2 PHD finger, 414-487 (UniProt P21784). Briefly: ITC with soluble peptides. Particulars: reference: unphosphorylated H3K4me3 peptide.
In assay [1] the target is JMJD2A double tudor domain (UniProt O75164). The assay can be described thus: ITC. For orientation: In ITC the heat of successive injections is recorded.
For assay [2], the target named is inhibitor of growth 2 (ING2) PHD finger. The assay can be described thus: ITC.
Another assay has as its target ING2 PHD finger (UniProt Q9H160). Briefly: ITC with soluble peptides. The note with it: reference: H3K4me3 peptide; sites T3.

Chain of JMJD2A double tudor domain (O75164 895-1011): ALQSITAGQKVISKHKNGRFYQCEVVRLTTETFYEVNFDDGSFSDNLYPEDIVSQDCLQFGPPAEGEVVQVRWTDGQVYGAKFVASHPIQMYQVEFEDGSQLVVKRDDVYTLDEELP

With “histone H3 (from UniProt P68431) H3K4me3 peptide with T6ph”, the KD result in the assay with RAG2 PHD finger, 414-487 (sites T6) is “lost; reference 17.8”.
One may read the Kd as the free concentration of one partner at which half of the binding sites on the other are occupied at equilibrium, for simple one-to-one binding. With H3K4me3T6ph peptide (ITC), the results for the equilibrium dissociation constant (Kd) in assay [1] and in assay [2] were 1.8 µM and 19.9 µM, respectively.
“histone H3 (from UniProt P68431) H3K4me3 peptide with T3ph”: the KD entry with ING2 PHD finger is given as “lost; reference 0.98”; with RAG2 PHD finger, 414-487 (sites T3), “lost; reference 17.8”.
